# Measurements from US10562947B2, “Compositions and methods for preventing or treating diseases, conditions or processes characterized by aberrant fibroblast proliferation and extracellular matrix deposition” (MOERAE MATRIX, INC., priority 2011, dated 2020).
# Assays:
# Assay in all cases: Kinase Profiling Assay
# Format in all cases: biochemical
# Conditions in all cases: 100 μM peptide
# Abl(h) = Abl(h) (Homo sapiens, UniProt P00519)
# Description: (§1) Every kinase activity measurement was conducted in duplicate.
# (§2) In addition to determining the IC50 of the compound, the specificity of MK2 inhibitory peptides was assessed by examining activities of all 266 human kinases available for testing in the Millipore kinase profiling service (Table 1).
# Met(h) = Met(h) (Homo sapiens, UniProt P08581)
# Description: as §1, §2
# NEK7(h) = NEK7(h) (Homo sapiens, UniProt Q8TDX7)
# Description: as §1, §2
# PKBβ(h) = PKBβ(h) (Homo sapiens, UniProt P31751)
# Description: as §1, §2
# PKCα(h) = PKCα(h) (Homo sapiens, UniProt P17252)
# Description: as §1, §2
# PKCμ(h) = molecular target: T1, PKCμ(h) (Homo sapiens, UniProt Q15139)
# T1 construct: purchased Millipore (IC50 Profiler Express service)
# T1 sequence (Q15139 1-912): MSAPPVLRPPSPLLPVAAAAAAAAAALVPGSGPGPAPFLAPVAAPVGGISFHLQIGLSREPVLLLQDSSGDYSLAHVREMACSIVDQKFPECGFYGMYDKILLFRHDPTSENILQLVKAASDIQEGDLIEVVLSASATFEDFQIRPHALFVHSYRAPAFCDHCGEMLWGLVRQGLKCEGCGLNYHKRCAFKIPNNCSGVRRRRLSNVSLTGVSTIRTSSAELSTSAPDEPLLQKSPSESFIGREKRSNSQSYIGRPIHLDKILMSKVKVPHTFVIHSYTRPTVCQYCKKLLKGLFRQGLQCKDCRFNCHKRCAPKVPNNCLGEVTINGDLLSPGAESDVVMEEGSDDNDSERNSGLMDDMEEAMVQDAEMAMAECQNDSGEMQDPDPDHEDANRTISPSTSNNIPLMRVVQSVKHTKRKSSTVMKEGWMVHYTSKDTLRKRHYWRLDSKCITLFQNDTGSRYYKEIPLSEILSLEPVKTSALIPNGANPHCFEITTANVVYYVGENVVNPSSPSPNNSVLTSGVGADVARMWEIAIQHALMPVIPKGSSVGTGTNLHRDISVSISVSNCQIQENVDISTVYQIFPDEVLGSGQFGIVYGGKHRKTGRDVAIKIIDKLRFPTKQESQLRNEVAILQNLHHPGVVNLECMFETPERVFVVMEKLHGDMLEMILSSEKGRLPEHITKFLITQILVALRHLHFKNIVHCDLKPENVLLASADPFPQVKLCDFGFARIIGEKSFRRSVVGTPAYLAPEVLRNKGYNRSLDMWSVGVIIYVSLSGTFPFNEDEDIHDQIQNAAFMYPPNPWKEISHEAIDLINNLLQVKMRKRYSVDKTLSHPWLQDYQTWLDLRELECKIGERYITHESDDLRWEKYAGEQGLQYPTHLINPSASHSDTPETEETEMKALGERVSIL
# Description: as §1, §2
# Pyk2(h) = molecular target: T2, Pyk2(h) (Homo sapiens, UniProt Q14289)
# T2 construct: purchased Millipore (IC50 Profiler Express service)
# Description: as §1, §2
# Ret(V804L)(h) = molecular target: T3, Ret(V804L)(h) (Homo sapiens, UniProt P07949, V804L)
# T3 construct: purchased Millipore (IC50 Profiler Express service)
# Description: as §1, §2
# TAO2(h) = molecular target: T4, TAO2(h) (Homo sapiens, UniProt Q9UL54)
# T4 sequence (Q9UL54 1-1235): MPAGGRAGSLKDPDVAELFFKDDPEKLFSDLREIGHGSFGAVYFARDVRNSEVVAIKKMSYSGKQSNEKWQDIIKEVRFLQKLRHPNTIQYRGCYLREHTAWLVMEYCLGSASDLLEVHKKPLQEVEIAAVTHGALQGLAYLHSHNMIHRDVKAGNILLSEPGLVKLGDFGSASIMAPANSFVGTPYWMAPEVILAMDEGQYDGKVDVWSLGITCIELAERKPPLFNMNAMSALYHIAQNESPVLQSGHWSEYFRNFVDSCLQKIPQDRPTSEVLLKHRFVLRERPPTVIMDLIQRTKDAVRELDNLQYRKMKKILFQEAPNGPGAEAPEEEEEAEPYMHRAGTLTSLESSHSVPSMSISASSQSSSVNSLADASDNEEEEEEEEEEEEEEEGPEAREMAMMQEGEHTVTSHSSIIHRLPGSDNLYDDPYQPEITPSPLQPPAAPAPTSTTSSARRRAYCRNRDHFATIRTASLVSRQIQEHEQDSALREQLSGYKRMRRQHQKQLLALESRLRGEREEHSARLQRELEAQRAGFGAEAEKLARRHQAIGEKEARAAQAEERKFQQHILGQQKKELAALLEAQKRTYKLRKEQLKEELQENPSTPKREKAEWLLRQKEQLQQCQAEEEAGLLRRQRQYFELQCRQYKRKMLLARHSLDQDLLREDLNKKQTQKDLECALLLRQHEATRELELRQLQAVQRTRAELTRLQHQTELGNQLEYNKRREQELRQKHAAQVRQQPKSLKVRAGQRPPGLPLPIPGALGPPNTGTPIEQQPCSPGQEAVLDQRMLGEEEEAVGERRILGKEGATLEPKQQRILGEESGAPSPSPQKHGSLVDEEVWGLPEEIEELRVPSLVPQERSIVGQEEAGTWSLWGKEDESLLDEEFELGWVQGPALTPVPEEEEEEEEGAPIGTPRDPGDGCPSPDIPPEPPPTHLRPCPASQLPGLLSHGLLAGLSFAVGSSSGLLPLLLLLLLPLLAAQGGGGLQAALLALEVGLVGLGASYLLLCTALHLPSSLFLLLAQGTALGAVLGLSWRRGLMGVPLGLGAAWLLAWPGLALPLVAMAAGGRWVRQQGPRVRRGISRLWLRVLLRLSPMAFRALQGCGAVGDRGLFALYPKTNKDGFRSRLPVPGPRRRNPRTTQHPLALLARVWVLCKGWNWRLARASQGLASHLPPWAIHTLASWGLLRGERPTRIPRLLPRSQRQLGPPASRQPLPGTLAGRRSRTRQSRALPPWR
# Description: as §1, §2
# PKBβ(h), sequence (P31751 whole entry): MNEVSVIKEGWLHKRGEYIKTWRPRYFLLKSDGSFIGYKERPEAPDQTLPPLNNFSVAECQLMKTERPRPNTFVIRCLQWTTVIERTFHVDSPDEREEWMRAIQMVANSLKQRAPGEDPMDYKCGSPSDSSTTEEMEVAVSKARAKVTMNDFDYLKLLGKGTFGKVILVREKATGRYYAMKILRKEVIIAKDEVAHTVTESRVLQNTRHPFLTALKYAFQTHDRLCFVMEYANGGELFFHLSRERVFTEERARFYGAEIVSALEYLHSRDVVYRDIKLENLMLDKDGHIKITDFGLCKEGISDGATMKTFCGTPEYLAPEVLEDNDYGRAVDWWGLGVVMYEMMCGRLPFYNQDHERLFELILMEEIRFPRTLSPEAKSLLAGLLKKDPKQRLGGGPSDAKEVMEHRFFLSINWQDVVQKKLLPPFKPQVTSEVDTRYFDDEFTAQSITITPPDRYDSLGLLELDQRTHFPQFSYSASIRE
# T2 sequence (Q14289 whole entry): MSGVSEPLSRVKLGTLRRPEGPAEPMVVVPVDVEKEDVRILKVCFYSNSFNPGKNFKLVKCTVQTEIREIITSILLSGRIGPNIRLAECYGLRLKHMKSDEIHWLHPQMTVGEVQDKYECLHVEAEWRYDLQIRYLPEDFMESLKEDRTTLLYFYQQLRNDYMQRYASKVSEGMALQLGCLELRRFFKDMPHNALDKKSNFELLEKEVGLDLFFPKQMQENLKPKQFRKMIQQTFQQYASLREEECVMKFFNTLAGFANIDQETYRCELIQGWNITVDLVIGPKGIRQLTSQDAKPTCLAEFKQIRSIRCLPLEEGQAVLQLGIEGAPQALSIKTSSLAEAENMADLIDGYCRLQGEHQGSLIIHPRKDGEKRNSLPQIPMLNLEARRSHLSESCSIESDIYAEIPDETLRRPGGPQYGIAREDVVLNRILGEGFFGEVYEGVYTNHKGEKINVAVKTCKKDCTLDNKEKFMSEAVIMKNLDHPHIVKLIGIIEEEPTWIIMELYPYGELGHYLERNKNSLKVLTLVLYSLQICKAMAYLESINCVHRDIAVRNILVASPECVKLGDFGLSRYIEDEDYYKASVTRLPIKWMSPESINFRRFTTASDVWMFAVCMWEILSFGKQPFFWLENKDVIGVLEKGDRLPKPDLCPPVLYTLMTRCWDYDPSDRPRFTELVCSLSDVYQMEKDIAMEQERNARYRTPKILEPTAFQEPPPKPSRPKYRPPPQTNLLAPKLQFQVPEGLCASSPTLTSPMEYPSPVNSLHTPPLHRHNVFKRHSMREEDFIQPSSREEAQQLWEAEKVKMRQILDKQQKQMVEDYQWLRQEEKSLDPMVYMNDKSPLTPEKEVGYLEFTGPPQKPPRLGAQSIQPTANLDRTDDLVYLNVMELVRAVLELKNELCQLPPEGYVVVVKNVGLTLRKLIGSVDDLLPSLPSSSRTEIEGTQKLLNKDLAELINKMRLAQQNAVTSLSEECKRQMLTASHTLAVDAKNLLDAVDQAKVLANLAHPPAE
# Met(h), sequence (P08581 25-1390): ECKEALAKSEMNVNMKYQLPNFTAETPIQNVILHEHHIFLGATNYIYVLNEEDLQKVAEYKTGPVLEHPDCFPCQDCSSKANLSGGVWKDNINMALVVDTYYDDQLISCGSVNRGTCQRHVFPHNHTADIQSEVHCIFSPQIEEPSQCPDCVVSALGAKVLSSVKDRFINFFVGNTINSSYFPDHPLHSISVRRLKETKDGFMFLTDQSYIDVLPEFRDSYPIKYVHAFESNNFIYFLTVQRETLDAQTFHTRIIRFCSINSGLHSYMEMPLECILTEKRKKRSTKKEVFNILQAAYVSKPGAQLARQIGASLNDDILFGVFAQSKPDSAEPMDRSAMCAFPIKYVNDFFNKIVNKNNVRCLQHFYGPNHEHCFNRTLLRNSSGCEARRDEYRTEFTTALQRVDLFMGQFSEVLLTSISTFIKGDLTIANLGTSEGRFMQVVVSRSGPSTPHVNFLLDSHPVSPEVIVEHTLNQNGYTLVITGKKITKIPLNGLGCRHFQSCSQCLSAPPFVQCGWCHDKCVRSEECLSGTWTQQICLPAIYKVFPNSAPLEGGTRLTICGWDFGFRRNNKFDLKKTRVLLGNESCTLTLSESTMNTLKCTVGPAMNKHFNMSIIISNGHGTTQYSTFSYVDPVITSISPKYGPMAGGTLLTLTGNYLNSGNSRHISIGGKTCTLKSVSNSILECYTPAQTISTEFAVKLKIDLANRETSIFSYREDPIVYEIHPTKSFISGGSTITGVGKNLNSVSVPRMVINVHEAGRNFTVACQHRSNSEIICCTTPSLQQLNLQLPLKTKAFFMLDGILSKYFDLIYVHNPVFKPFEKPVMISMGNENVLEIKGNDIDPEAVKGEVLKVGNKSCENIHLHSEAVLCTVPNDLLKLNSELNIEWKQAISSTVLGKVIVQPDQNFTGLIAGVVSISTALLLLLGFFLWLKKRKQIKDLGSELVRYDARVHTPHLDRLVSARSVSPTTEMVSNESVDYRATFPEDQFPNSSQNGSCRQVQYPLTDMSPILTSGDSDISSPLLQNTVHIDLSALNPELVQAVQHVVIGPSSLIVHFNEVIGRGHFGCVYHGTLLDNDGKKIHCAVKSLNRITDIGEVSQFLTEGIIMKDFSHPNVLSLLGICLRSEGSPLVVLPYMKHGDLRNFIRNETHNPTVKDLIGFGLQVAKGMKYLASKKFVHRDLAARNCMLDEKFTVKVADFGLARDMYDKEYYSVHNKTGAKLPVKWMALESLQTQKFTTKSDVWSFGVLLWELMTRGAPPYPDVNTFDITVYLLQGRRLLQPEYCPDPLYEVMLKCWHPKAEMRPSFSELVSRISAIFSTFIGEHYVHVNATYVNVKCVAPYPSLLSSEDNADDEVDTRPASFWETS
# NEK7(h), sequence (Q8TDX7 whole entry): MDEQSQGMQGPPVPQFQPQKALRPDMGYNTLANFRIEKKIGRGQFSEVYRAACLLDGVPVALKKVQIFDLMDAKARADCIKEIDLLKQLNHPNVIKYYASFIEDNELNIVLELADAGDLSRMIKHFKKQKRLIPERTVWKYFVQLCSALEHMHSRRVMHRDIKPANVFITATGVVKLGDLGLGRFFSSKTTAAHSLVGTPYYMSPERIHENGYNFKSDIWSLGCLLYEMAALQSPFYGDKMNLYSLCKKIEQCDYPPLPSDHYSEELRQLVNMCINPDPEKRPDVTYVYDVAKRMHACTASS
# Abl(h), sequence (P00519 whole entry): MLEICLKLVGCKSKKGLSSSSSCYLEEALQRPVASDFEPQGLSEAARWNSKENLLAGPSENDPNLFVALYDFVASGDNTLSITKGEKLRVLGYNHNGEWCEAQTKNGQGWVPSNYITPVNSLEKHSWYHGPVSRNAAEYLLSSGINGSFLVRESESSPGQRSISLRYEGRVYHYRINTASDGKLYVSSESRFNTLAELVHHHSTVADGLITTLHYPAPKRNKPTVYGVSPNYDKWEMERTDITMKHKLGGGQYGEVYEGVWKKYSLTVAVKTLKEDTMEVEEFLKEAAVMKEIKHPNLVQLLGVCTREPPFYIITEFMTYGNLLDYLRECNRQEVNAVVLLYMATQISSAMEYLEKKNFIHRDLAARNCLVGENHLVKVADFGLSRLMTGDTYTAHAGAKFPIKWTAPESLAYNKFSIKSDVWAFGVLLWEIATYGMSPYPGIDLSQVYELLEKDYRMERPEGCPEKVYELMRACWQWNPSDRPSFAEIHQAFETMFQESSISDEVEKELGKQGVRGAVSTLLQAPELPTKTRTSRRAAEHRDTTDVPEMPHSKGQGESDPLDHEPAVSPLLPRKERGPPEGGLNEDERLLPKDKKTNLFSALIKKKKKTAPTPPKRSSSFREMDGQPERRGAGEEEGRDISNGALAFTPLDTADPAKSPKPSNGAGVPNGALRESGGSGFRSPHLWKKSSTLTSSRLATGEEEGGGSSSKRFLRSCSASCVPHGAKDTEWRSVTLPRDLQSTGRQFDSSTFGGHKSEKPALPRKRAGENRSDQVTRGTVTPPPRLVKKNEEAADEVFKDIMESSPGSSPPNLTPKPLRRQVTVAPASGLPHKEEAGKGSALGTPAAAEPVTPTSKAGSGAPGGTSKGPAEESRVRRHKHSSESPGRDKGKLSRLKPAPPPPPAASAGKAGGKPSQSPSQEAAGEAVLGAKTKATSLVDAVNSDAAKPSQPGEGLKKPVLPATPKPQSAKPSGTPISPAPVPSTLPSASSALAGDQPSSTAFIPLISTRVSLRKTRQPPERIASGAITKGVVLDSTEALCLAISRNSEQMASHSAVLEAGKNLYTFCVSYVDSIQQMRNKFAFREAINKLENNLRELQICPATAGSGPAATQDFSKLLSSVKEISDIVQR
sequence,measurement,setting,value
FAKLAARLYRKALARQLGVAA [MMI-0300],Abl(h) % activity,Abl(h),69%
same,Met(h) % activity,Met(h),65%
same,NEK7(h) % activity,NEK7(h),84%
same,PKBβ(h) % activity,PKBβ(h),84%
same,PKCα(h) % activity,PKCα(h),89%
same,PKCμ(h) % activity,PKCμ(h),22%
same,Pyk2(h) % activity,Pyk2(h),47%
same,Ret(V804L)(h) % activity,Ret(V804L)(h),79%
same,TAO2(h) % activity,TAO2(h),70%
KAFAKLAARLYRKALARQLGVAA [MMI-0400],Abl(h) % activity,Abl(h),84%
same,Met(h) % activity,Met(h),62%
same,NEK7(h) % activity,NEK7(h),87%
same,PKBβ(h) % activity,PKBβ(h),98%
same,PKCα(h) % activity,PKCα(h),86%
same,PKCμ(h) % activity,PKCμ(h),14%
same,Pyk2(h) % activity,Pyk2(h),34%
same,Ret(V804L)(h) % activity,Ret(V804L)(h),73%
same,TAO2(h) % activity,TAO2(h),74%
HRRIKAWLKKIKALARQLGVAA (Mammalian) [MMI-0500],Abl(h) % activity,Abl(h),16%
same,Met(h) % activity,Met(h),27%
same,NEK7(h) % activity,NEK7(h),89%
same,PKBβ(h) % activity,PKBβ(h),21%
same,PKCα(h) % activity,PKCα(h),3%
same,PKCμ(h) % activity,PKCμ(h),10%
same,Pyk2(h) % activity,Pyk2(h),46%
same,Ret(V804L)(h) % activity,Ret(V804L)(h),20%
same,TAO2(h) % activity,TAO2(h),15%
YARAAARQARAKALNRQLGVA (Mammalian) [MMI-0200],Met(h) % activity,Met(h),71%
same,NEK7(h) % activity,NEK7(h),96%
same,PKBβ(h) % activity,PKBβ(h),250%
same,PKCα(h) % activity,PKCα(h),100%
same,PKCμ(h) % activity,PKCμ(h),73%
same,Pyk2(h) % activity,Pyk2(h),127%
same,Ret(V804L)(h) % activity,Ret(V804L)(h),100%
same,TAO2(h) % activity,TAO2(h),93%
